This is an account of results in patent publication US20140056964A1, “GRANZYME B INHIBITOR COMPOSITIONS, METHODS AND USES FOR PROMOTING WOUND HEALING” (THE UNIVERSITY OF BRITISH COLUMBIA, priority 2010, published 2014).

The subject of the assay is wild type C57BL/6 mice. In words: full thickness skin wound in mice, decorin immunohistochemistry of closed wound tissue. The format is in vivo, mouse. As to conditions: 1 cm full thickness back wound, 60 μl applied directly onto the wound, 16 days. How it is done: As depicted in FIG. 23, decorin distribution is impacted by serpina3n in closed wound tissue. Seven week old wild type C57BL/6 mice were given a 1 cm diameter full thickness wound on their backs. Mice were then given either saline (upper panels) or the Granzyme B inhibitor, serpina3n (lower panels), by applying 60 μl of the appropriate solution directly onto the wound immediately following the wounding procedure. Wounds were allowed to heal for 16 days, at which point mice were sacrificed and the closed wound tissue harvested. […] Increased decorin throughout the newly formed dermis thus provides more organized collagen, less scarring and increased tensile strength.

B1: serpina3n: the Granzyme B inhibitor, serpina3n; Serpina3n is also known as SerpinA3 (protein, UniProt Q91WP6 21-418, looked up)
Serine protease inhibitor A3N: FPDGTLGMDAAVQEDHDNGTQLDSLTLASINTDFAFSLYKELVLKNPDKNIVFSPLSISAALAVMSLGAKGNTLEEILEGLKFNLTETSEADIHQGFGHLLQRLNQPKDQVQISTGSALFIEKRQQILTEFQEKAKTLYQAEAFTADFQQPRQAKKLINDYVRKQTQGMIKELVSDLDKRTLMVLVNYIYFKAKWKVPFDPLDTFKSEFYAGKRRPVIVPMMSMEDLTTPYFRDEELSCTVVELKYTGNASALFILPDQGRMQQVEASLQPETLRKWKNSLKPRMIDELHLPKFSISTDYSLEDVLSKLGIREVFSTQADLSAITGTKDLRVSQVVHKAVLDVAETGTEAAAATGVKFVPMSAKLYPLTVYFNRPFLIMIFDTETEIAPFIAKIANPK
For the molecule B1, the “decorin distribution (immunohistochemistry) in newly formed dermis” value is given as “intense decorin staining near the dermal-epidermal junction but also demonstrated intense decorin staining deeper into the dermis”.
